The values below come from patent publication US20210261648A1 (published 2021).

Assay [1] deals with T1, FcγRIa extracellular domain with C-terminal His tag (human, UniProt P12314 16-292).
T1 construct: also called FcgRIa
The experiment in a line: SPR, captured antibody, FcgR analyte. On the technique in general: SPR reads the build-up and loss of mass on a sensor chip optically.
Experimental: (§1) Relative binding activities were calculated for the results of analyzing interactions with the respective FcγRs according to the following method.

In assay [2] the target is T2, FcγRIIb extracellular domain with C-terminal His tag (human, UniProt P31994 43-217).
T2 construct: extracellular domain; also called FcgRIIb
T2 sequence (looked up): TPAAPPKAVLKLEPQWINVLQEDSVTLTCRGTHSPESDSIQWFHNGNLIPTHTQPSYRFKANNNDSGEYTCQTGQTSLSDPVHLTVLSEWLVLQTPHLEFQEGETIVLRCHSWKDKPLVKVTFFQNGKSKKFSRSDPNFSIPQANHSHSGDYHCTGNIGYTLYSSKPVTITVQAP
Put plainly: SPR, captured antibody, FcgR analyte.
Experimental: as §1

T1 sequence (P12314 16-292): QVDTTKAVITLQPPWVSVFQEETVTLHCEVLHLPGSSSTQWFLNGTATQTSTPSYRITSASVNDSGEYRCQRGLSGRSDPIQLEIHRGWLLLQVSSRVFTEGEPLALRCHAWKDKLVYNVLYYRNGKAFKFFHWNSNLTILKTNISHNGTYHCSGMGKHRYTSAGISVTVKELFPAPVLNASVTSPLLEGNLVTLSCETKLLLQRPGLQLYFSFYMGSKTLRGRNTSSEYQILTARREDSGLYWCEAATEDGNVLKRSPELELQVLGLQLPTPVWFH

B1: IL6R-BP132/IL6R-L (antibody, human IgG1, kappa)
heavy: QVQLQESGPGLVKPSETLSLTCAVSGHSISHDHAWSWVRQPPGEGLEWIGFISYSGITNYNPSLQGRVTISRDNSKNTLYLQMNSLRAEDTAVYYCARSLARTTAMDYWGEGTLVTVSSASTKGPSVFPLAPSSKSTSGGTAALGCLVKDYFPEPVTVSWNSGALTSGVHTFPAVLQSSGLYSLSSVVTVPSSSLGTQTYICNVNHKPSNTKVDKKVEPKSCDKTHTCPPCPAPDLLGGDSVFLFPPKPKDTLMISRTPEVTCVVVDVSHEDPEVKFNWYVDGVEVHNAKTKPREEQYNSTYRVVSVLTVLHQDWLNGKEYKCKVSNAALPKPIEKTISKAKGQPREPQVYTLPPSRDELTKNQVSLTCLVKGFYPSDIAVEWESNGQPENNYKTTPPVLDSDGSFFLYSKLTVDKSRWQQGNVFSCSVMHEALHNHYTQESLSLSP
light: not shown
As for B1, the relative binding activity in assay [1] is 91 relative (IL6R-BF648/IL6R-L = 100); in assay [2], 150 relative (IL6R-BF648/IL6R-L = 100).

B2: IL6R-BP204/IL6R-L (antibody, human IgG1, kappa)
heavy: QVQLQESGPGLVKPSETLSLTCAVSGHSISHDHAWSWVRQPPGEGLEWIGFISYSGITNYNPSLQGRVTISRDNSKNTLYLQMNSLRAEDTAVYYCARSLARTTAMDYWGEGTLVTVSSASTKGPSVFPLAPSSKSTSGGTAALGCLVKDYFPEPVTVSWNSGALTSGVHTFPAVLQSSGLYSLSSVVTVPSSSLGTQTYICNVNHKPSNTKVDKKVEPKSCDKTHTCPPCPAPDLLGGDSVFLFPPKPKDTLMISRTPEVTCVVVDVSHEDGEVKFNWYVDGVEVHNAKTKPREEQYNSTYRVVSVLTVLHQDWLNGKEYKCKVSNAALPRPIEKTISKAKGQPREPQVYTLPPSRDELTKNQVSLTCLVKGFYPSDIAVEWESNGQPENNYKTTPPVLDSDGSFFLYSKLTVDKSRWQQGNVFSCSVMHEALHNHYTQESLSLSP
light: not shown
Regarding B2, the results for the relative binding activity in assay [1] and in assay [2] were 110 relative (IL6R-BF648/IL6R-L = 100) and 165 relative (IL6R-BF648/IL6R-L = 100), respectively.

B3: IL6R-BP176/IL6R-L (antibody, human IgG1, kappa)
heavy: QVQLQESGPGLVKPSETLSLTCAVSGHSISHDHAWSWVRQPPGEGLEWIGFISYSGITNYNPSLQGRVTISRDNSKNTLYLQMNSLRAEDTAVYYCARSLARTTAMDYWGEGTLVTVSSASTKGPSVFPLAPSSKSTSGGTAALGCLVKDYFPEPVTVSWNSGALTSGVHTFPAVLQSSGLYSLSSVVTVPSSSLGTQTYICNVNHKPSNTKVDKKVEPKSCDKTHTCPPCPAPDLLGGDSVFLFPPKPKDTLMISRTPEVTCVVVDVSHEDPEVKFNWYVDGVEVHNAKTKPREEQYNSTYRVVSVLTVLHQDWLNGKEYKCKVSNDALPKPIEKTISKAKGQPREPQVYTLPPSRDELTKNQVSLTCLVKGFYPSDIAVEWESNGQPENNYKTTPPVLDSDGSFFLYSKLTVDKSRWQQGNVFSCSVMHEALHNHYTQESLSLSP
light: not shown
Regarding B3, the relative binding activity in assay [1] was 102 relative (IL6R-BF648/IL6R-L = 100); in assay [2], 147 relative (IL6R-BF648/IL6R-L = 100).

B4: IL6R-BP188/IL6R-L (antibody, human IgG1, kappa)
heavy: QVQLQESGPGLVKPSETLSLTCAVSGHSISHDHAWSWVRQPPGEGLEWIGFISYSGITNYNPSLQGRVTISRDNSKNTLYLQMNSLRAEDTAVYYCARSLARTTAMDYWGEGTLVTVSSASTKGPSVFPLAPSSKSTSGGTAALGCLVKDYFPEPVTVSWNSGALTSGVHTFPAVLQSSGLYSLSSVVTVPSSSLGTQTYICNVNHKPSNTKVDKKVEPKSCDKTHTCPPCPAPDLLGDDSVFLFPPKPKDTLMISRTPEVTCVVVDVSDEDGEVKFNWYVDGVEVHNAKTKPREEQYNSTYRVVSVLTVLHQDWLNGKEYKCKVSNKALPKPIEKTISKAKGQPREPQVYTLPPSRDELTKNQVSLTCLVKGFYPSDIAVEWESNGQPENNYKTTPPVLDSDGSFFLYSKLTVDKSRWQQGNVFSCSVMHEALHNHYTQESLSLSP
light: not shown
In the case of B4, the relative binding activity in assay [1] is 74 relative (IL6R-BF648/IL6R-L = 100); in assay [2], 179 relative (IL6R-BF648/IL6R-L = 100).

B5: IL6R-BP144/IL6R-L (antibody, human IgG1, kappa)
heavy: QVQLQESGPGLVKPSETLSLTCAVSGHSISHDHAWSWVRQPPGEGLEWIGFISYSGITNYNPSLQGRVTISRDNSKNTLYLQMNSLRAEDTAVYYCARSLARTTAMDYWGEGTLVTVSSASTKGPSVFPLAPSSKSTSGGTAALGCLVKDYFPEPVTVSWNSGALTSGVHTFPAVLQSSGLYSLSSVVTVPSSSLGTQTYICNVNHKPSNTKVDKKVEPKSCDKTHTCPPCPAPELLGDDSVFLFPPKPKDTLMISRTPEVTCVVVDVSHEDPEVKFNWYVDGVEVHNAKTKPREEQYNSTYRVVSVLTVLHQDWLNGKEYKCKVSNAALPAPIEKTISKAKGQPREPQVYTLPPSRDELTKNQVSLTCLVKGFYPSDIAVEWESNGQPENNYKTTPPVLDSDGSFFLYSKLTVDKSRWQQGNVFSCSVMHEALHNHYTQESLSLSP
light: not shown
As to B5, the relative binding activity in assay [1] was 64 relative (IL6R-BF648/IL6R-L = 100); in assay [2], 121 relative (IL6R-BF648/IL6R-L = 100).

B6: IL6R-BP193/IL6R-L (antibody, human IgG1, kappa)
heavy: QVQLQESGPGLVKPSETLSLTCAVSGHSISHDHAWSWVRQPPGEGLEWIGFISYSGITNYNPSLQGRVTISRDNSKNTLYLQMNSLRAEDTAVYYCARSLARTTAMDYWGEGTLVTVSSASTKGPSVFPLAPSSKSTSGGTAALGCLVKDYFPEPVTVSWNSGALTSGVHTFPAVLQSSGLYSLSSVVTVPSSSLGTQTYICNVNHKPSNTKVDKKVEPKSCDKTHTCPPCPAPDLLGGDSVFLFPPKPKDTLMISRTPEVTCVVVDVSDEDGEVKFNWYVDGVEVHNAKTKPREEQYNSTYRVVSVLTVLHQDWLNGKEYKCKVSNKALPKPIEKTISKAKGQPREPQVYTLPPSRDELTKNQVSLTCLVKGFYPSDIAVEWESNGQPENNYKTTPPVLDSDGSFFLYSKLTVDKSRWQQGNVFSCSVMHEALHNHYTQESLSLSP
light: not shown
Take B6: the relative binding activity was 113 relative (IL6R-BF648/IL6R-L = 100) in assay [1] and 173 relative (IL6R-BF648/IL6R-L = 100) in assay [2].

B7: IL6R-BP133/IL6R-L (antibody, human IgG1, kappa)
heavy: QVQLQESGPGLVKPSETLSLTCAVSGHSISHDHAWSWVRQPPGEGLEWIGFISYSGITNYNPSLQGRVTISRDNSKNTLYLQMNSLRAEDTAVYYCARSLARTTAMDYWGEGTLVTVSSASTKGPSVFPLAPSSKSTSGGTAALGCLVKDYFPEPVTVSWNSGALTSGVHTFPAVLQSSGLYSLSSVVTVPSSSLGTQTYICNVNHKPSNTKVDKKVEPKSCDKTHTCPPCPAPDYLGGDSVFLFPPKPKDTLMISRTPEVTCVVVDVSHEDPEVKFNWYVDGVEVHNAKTKPREEQYNSTYRVVSVLTVLHQDWLNGKEYKCKVSNKALPKPIEKTISKAKGQPREPQVYTLPPSRDELTKNQVSLTCLVKGFYPSDIAVEWESNGQPENNYKTTPPVLDSDGSFFLYSKLTVDKSRWQQGNVFSCSVMHEALHNHYTQESLSLSP
light: not shown
Regarding B7, the relative binding activity in assay [1] is 41 relative (IL6R-BF648/IL6R-L = 100); in assay [2], 137 relative (IL6R-BF648/IL6R-L = 100).

B8: IL6R-BP184/IL6R-L (antibody, human IgG1, kappa)
heavy: QVQLQESGPGLVKPSETLSLTCAVSGHSISHDHAWSWVRQPPGEGLEWIGFISYSGITNYNPSLQGRVTISRDNSKNTLYLQMNSLRAEDTAVYYCARSLARTTAMDYWGEGTLVTVSSASTKGPSVFPLAPSSKSTSGGTAALGCLVKDYFPEPVTVSWNSGALTSGVHTFPAVLQSSGLYSLSSVVTVPSSSLGTQTYICNVNHKPSNTKVDKKVEPKSCDKTHTCPPCPAPDLLGGDSVFLFPPKPKDTLMISRTPEVTCVVVDVSHEDGEVKFNWYVDGVEVHNAKTKPREEQYNSTYRVVSVLTVLHQDWLNGKEYKCKVSNKALPKPIEKTISKAKGQPREPQVYTLPPSRDELTKNQVSLTCLVKGFYPSDIAVEWESNGQPENNYKTTPPVLDSDGSFFLYSKLTVDKSRWQQGNVFSCSVMHEALHNHYTQESLSLSP
light: not shown
For the molecule B8, the relative binding activity is 96 relative (IL6R-BF648/IL6R-L = 100) in assay [1] and 171 relative (IL6R-BF648/IL6R-L = 100) in assay [2].

B9: IL6R-BP143/IL6R-L (antibody, human IgG1, kappa)
heavy: QVQLQESGPGLVKPSETLSLTCAVSGHSISHDHAWSWVRQPPGEGLEWIGFISYSGITNYNPSLQGRVTISRDNSKNTLYLQMNSLRAEDTAVYYCARSLARTTAMDYWGEGTLVTVSSASTKGPSVFPLAPSSKSTSGGTAALGCLVKDYFPEPVTVSWNSGALTSGVHTFPAVLQSSGLYSLSSVVTVPSSSLGTQTYICNVNHKPSNTKVDKKVEPKSCDKTHTCPPCPAPEYLGGDSVFLFPPKPKDTLMISRTPEVTCVVVDVSHEDPEVKFNWYVDGVEVHNAKTKPREEQYNSTYRVVSVLTVLHQDWLNGKEYKCKVSNAALPAPIEKTISKAKGQPREPQVYTLPPSRDELTKNQVSLTCLVKGFYPSDIAVEWESNGQPENNYKTTPPVLDSDGSFFLYSKLTVDKSRWQQGNVFSCSVMHEALHNHYTQESLSLSP
light: not shown
On to B9, for which the relative binding activity in assay [1] is 86 relative (IL6R-BF648/IL6R-L = 100); in assay [2], 133 relative (IL6R-BF648/IL6R-L = 100).

B10: IL6R-BP192/IL6R-L (antibody, human IgG1, kappa)
heavy: QVQLQESGPGLVKPSETLSLTCAVSGHSISHDHAWSWVRQPPGEGLEWIGFISYSGITNYNPSLQGRVTISRDNSKNTLYLQMNSLRAEDTAVYYCARSLARTTAMDYWGEGTLVTVSSASTKGPSVFPLAPSSKSTSGGTAALGCLVKDYFPEPVTVSWNSGALTSGVHTFPAVLQSSGLYSLSSVVTVPSSSLGTQTYICNVNHKPSNTKVDKKVEPKSCDKTHTCPPCPAPDLLGGDSVFLFPPKPKDTLMISRTPEVTCVVVDVSDEDGEVKFNWYVDGVEVHNAKTKPREEQDNSTYRVVSVLTVLHQDWLNGKEYKCKVSNKALPKPIEKTISKAKGQPREPQVYTLPPSRDELTKNQVSLTCLVKGFYPSDIAVEWESNGQPENNYKTTPPVLDSDGSFFLYSKLTVDKSRWQQGNVFSCSVMHEALHNHYTQESLSLSP
light: not shown
As to B10, the values for the relative binding activity in assay [1] and in assay [2] were 109 relative (IL6R-BF648/IL6R-L = 100) and 172 relative (IL6R-BF648/IL6R-L = 100), respectively.

B11: IL6R-BP182/IL6R-L (antibody, human IgG1, kappa)
heavy: QVQLQESGPGLVKPSETLSLTCAVSGHSISHDHAWSWVRQPPGEGLEWIGFISYSGITNYNPSLQGRVTISRDNSKNTLYLQMNSLRAEDTAVYYCARSLARTTAMDYWGEGTLVTVSSASTKGPSVFPLAPSSKSTSGGTAALGCLVKDYFPEPVTVSWNSGALTSGVHTFPAVLQSSGLYSLSSVVTVPSSSLGTQTYICNVNHKPSNTKVDKKVEPKSCDKTHTCPPCPAPDLLGGDSVFLFPPKPKDTLMISRTPEVTCVVVDVSHEDGEVKFNWYVDGVEVHNAKTKPREEQDNSTYRVVSVLTVLHQDWLNGKEYKCKVSNKALPKPIEKTISKAKGQPREPQVYTLPPSRDELTKNQVSLTCLVKGFYPSDIAVEWESNGQPENNYKTTPPVLDSDGSFFLYSKLTVDKSRWQQGNVFSCSVMHEALHNHYTQESLSLSP
light: not shown
Turning to B11, the relative binding activity was 95 relative (IL6R-BF648/IL6R-L = 100) in assay [1] and 173 relative (IL6R-BF648/IL6R-L = 100) in assay [2].
